# From patent US8003609B2, “Method for ameliorating pain by modification of NMDA receptors through inhibition of Src” (The Hospital for Sick Children, priority 2004, dated 2011)
# Square brackets hold non-standard residues; d marks the D form. Ends that are not written are not given here. pY = N[C@@H](Cc1ccc(OP(=O)(O)O)cc1)C(=O)O
# Columns and labels:
# [1] = target: T1, Src unique domain (Mus musculus, UniProt P05480); assay: blot of ND2-GST fusion proteins probed with biotinylated Src unique domain; type: binding; details: GST fusion protein
# T1 construct: amino acids 4-82 (the Src unique domain); GST (N); made in house; host or cells: BL21 bacteria
# Experimental: (§1) Src, Fyn, and ND2 recombinant proteins were prepared. The cDNAs encoding the SH3 and SH2 domains of mouse n-Src and Fyn were PCR subcloned, ligated in frame into pGEX4T-1 (Amersham Pharmacia Biotech, Baie d'Urfé, Québec), and sequenced. These plasmids, as well as plasmids encoding the unique domains of Src and Fyn in pGEX2T'6, were transformed into BL21 bacteria, and GST fusion proteins were purified by glutathione affinity chromatography. To create the ND2.1, ND2.2, and ND2.3 GST fusion proteins, cDNAs encoding amino acids 239-321 (ND2.1-GST; SEQ ID NO:7), amino acids 189-238 (ND2.2-GST; SEQ ID NO:11), and amino acids 1-188 (ND2.3-GST; SEQ ID NO:13) of human ND2 were PCR subcloned and ligated into pGEX4T-1 (the nucleotide sequence encoding ND2 is SEQ ID NO:8 and the amino acid sequence is SEQ ID NO:9; the nucleotide sequences encoding ND2.1; ND2.2 and ND2.3 are SEQ ID NOS:6, 10 and 12, respectively). Using PCR-based single nucleotide mutagenesis, all cDNAs encoding ND2 fusion proteins were corrected for differences between mitochondrial and nuclear codons to prevent premature translation termination and protein truncation. All constructs were then confirmed by sequencing. The plasmids were transformed into bacteria, and GST fusion proteins were purified by glutathione affinity chromatography.
# (§2) Detailed protocols for in vitro binding assays, pull down assays, immunoblotting, and co-immunoprecipitation techniques can be found in Pelkey et al. (Neuron 34:127-138 2002).
# As yeast two-hybrid screening may reveal false positive protein-protein interactions, the interaction between Src and ND2 was observed using an independent methodological approach. Direct binding in vitro between ND2 and Src was tested using recombinant proteins. A series of GST fusion proteins comprised of portions of ND2 that spanned the overlapping region found with the yeast two-hybrid screen were made (FIG. 1A). […]
# [2] = target: T2, ND2.1-GST (Homo sapiens, UniProt P03891, A265T); assay: in vitro binding of biotinylated Src peptides to ND2.1-GST (blot / dot blot); details: biotinylated peptide, streptavidin-HRP detection
# T2 construct: made in house; host or cells: bacteria
# Experimental: as §1
# Src40-58 and scrambled Src peptides were biotinylated by incubating with Sulfo-NHS-Biotin (Pierce Chemical Co., Rockford, Ill.) for 30 minutes at room temperature (SEQ ID NO:4, Src protein). […] Bound probe was then detected on film using an ECL kit.
# To detect the binding of ND2.1-GST with Src peptides, the ND2.1-GST fusion protein was purified on glutathione SEPHAROSE. […] Bound probe was then detected on film using an ECL kit (Amersham Pharmacia Biotech, Baie d'Urfé, Québec).
# Src40-58, Src40-49, Src49-58, scrambled Src40-58, TAT-Src40-49, and scrambled TAT-Src40-49 peptides were biotinylated by incubating with Sulfo-NHS-Biotin (Pierce Chemical Co., Rockford, Ill.) for 30 minutes at room temperature. […] Bound probe was then detected on film using an ECL kit.
# [3] = tested on: NMDAR; assay: mEPSC whole cell recordings in cultured hippocampal neurons, NMDAR component; type: cell-based, rat
# Experimental: (§3) Fetal rat hippocampal neurons were prepared, cultured, and used for electrophysiological recordings 12-17 days after plating. Methods for whole cell recordings are described in Pelkey et al. (Neuron 34:127-138 2002).
# (§4) In contrast, in control experiments administering EPQ(pY)EEIPIA (SEQ ID NO:5) increased the NMDAR component of mEPSCs by 172±28% and application of Src40-58 decreased the NMDAR component to 56±4% (FIGS. 5D-F). […] Composite traces are shown in black, the NMDAR component in dark grey, and the AMPAR component in light grey. Scale bars are 50 ms/10 pA. […] NMDA component data were calculated as Q20′/Q2′, and AMPA component data were calculated as A20′/A2′. […] An * indicates a significant difference, Student's t-test, p<0.05. Taking our results together, it is concluded that Src-dependent regulation of the activity of NMDARs depends on expression of ND2 through its anchoring of Src to the NMDAR complex.
# [4] = tested on: AMPA receptor; assay: mEPSC whole cell recordings in cultured hippocampal neurons, AMPA receptor component; type: cell-based, rat; details: under the recording conditions used
# Experimental: as §3, §4
# [5] = target: T3, association of Src with the NMDAR complexes (Rattus norvegicus, UniProt P11662); assay: co-immunoprecipitation of Src with NMDARs from PSD proteins; type: binding
# T3 construct: from tissue; host or cells: rat brain post-synaptic density fraction
# Experimental: as §2
# (§5) Post-synaptic density proteins (Kennedy et al. Proceedings of the National Academy of Science USA 80:7357-7361 1983) were prepared from rat brain as described in detail (Pelkey et al. Neuron 34:127-138 2002). Cellular fractionation of rat brain tissue into nuclear, heavy mitochondrial, light mitochondrial, microsomal, and cytosolic fractions was performed by differential centrifugation of tissue homogenate in 0.25 M sucrose/10 mM HEPES-NaOH, 1 mM EDTA, pH 7.4 with 2 μg each of aprotinin, pepstatin A, and leupeptin (Sigma, St. Louis, Mo.) at 4° C. Nuclei were pelleted by centrifugation at 1 000 g for 10 minutes, the supernatant was removed and spun at 3 000 g for 10 minutes to obtain a heavy mitochondrial pellet. The supernatant was removed and spun at 16 000 g for 15 minutes to obtain a light mitochondrial pellet. The supernatant was removed and spun at 100 000 g for 1 hour to obtain a microsomal pellet and the cytosolic fraction. All pellets were then resuspended in RIPA buffer (50 mM Tris pH 7.6, 150 mM NaCl, 1 mM EDTA, 1% NP-40, 2.5 mg/ml NaDOC, 1 mM Na3VO4 1 mM PMSF, and 2 μg/ml each of protease inhibitors). The light mitochondrial fraction was used in subsequent experiments. […]
# [6] = tested on: SH2 or SH3 domains of Src; assay: blot of ND2.1-GST probed with biotinylated SH2 and SH3 domains of Src; type: binding, mouse
# Experimental: (§6) Src, Fyn, and ND2 recombinant proteins were prepared. The cDNAs encoding the SH3 and SH2 domains of mouse n-Src and Fyn were PCR subcloned, ligated in frame into pGEX4T-1 (Amersham Pharmacia Biotech, Baie d'Urfé, Québec), and sequenced. These plasmids, as well as plasmids encoding the unique domains of Src and Fyn in pGEX2T'6, were transformed into BL21 bacteria, and GST fusion proteins were purified by glutathione affinity chromatography. To create the ND2.1, ND2.2, and ND2.3 GST fusion proteins, cDNAs encoding amino acids 239-321 (ND2.1-GST; SEQ ID NO:7), amino acids 189-238 (ND2.2-GST; SEQ ID NO:11), and amino acids 1-188 (ND2.3-GST; SEQ ID NO:13) of human ND2 were PCR subcloned and ligated into pGEX4T-1 (the nucleotide sequence encoding ND2 is SEQ ID NO:8 and the amino acid sequence is SEQ ID NO:9; the nucleotide sequences encoding ND2.1; ND2.2 and ND2.3 are SEQ ID NOS:6, 10 and 12, respectively). Using PCR-based single nucleotide mutagenesis, all cDNAs encoding ND2 fusion proteins were corrected for differences between mitochondrial and nuclear codons to prevent premature translation termination and protein truncation. All constructs were then confirmed by sequencing. The plasmids were transformed into bacteria, and GST fusion proteins were purified by glutathione affinity chromatography. […]
# [7] = target: T4, Fyn unique domain (Mus musculus, UniProt P39688); assay: blot of ND2.1-GST probed with biotinylated Fyn unique domain; type: binding
# T4 construct: plasmids encoding the unique domains of Src and Fyn in pGEX2T'6; GST (N); made in house; host or cells: BL21 bacteria
# Experimental: as §6
# [8] = target: T5, Src (Rattus norvegicus, UniProt Q9WUD9); assay: pull down of Src from PSD preparations by ND2-GST fusion proteins; type: binding
# T5 construct: from tissue; host or cells: rat brain post-synaptic density fraction
# Experimental: as §2, §5
# [9] = target: Src (Homo sapiens, UniProt P12931); assay: catalytic activity of Src in vitro; type: biochemical; details: not illustrated
# Excerpt: As ND2 alone is not catalytically active (J. E. Walker Quarterly Reviews of Biophysics 25(3):253-324 1992; Sazanov et al. Journal of Molecular Biology 302:455-464 2000; Sazanove et al. Biochemistry 39:7229-7235 2000), its functional role in the NMDAR complex was investigated. […] Thus, it is unlikely that ND2 is a target of Src or a regulator of Src kinase activity.
# T3 sequence (P11662 whole entry, other chains not shown): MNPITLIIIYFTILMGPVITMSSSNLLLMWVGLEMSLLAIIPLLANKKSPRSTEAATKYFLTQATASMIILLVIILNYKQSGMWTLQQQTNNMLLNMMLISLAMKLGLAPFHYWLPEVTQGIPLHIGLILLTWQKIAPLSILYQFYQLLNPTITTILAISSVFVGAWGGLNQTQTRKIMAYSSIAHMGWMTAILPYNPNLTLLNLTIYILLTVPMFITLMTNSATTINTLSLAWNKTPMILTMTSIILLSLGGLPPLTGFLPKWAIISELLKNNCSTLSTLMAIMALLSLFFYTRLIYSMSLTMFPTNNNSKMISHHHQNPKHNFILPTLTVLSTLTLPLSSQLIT
# T4 sequence (P39688 1-81 limits assumed): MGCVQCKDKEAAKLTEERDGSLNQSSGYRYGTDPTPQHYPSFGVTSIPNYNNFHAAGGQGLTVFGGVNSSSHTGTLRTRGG
molecule,measurement,setting,value
ND2.2-GST: GST fusion protein containing amino acids 189-238 of human ND2 (SEQ ID NO:11) (WMMAVLPYNPNMTILNLTIYIILTTTAFLLLNLNSSTTTLLLSRTWNKLT; also: GST fusion protein),binding to the unique domain of Src,[1],did not bind
Src50-58: Src49-58: peptide comprising amino acid residues 49-58 of SEQ ID NO:4; printed Src50-58 in the summary (PSAAFAPAAA; listed as Homo sapiens),binding to ND2.1-GST,[2],did not interact
"Src40-49: peptide, 10 amino acid residues, corresponding approximately to amino acid positions 40-49 of the Src unique domain (SEQ ID NO:1) (KPASADGHR; listed as Homo sapiens)",binding to ND2.1-GST,[2],interacts with ND2
EPQ(pY)EEIPIA (EPQ[pY]EEIPIA),"NMDAR component of mEPSCs, increased by","[3]; control experiments, cultured hippocampal neurons",172±28%
same,NMDAR component of the mEPSCs,[3]; neurons treated with chloramphenicol for 48 hours,not affected
same,AMPA receptor component of the mEPSCs,[4],neither of these reagents affected
"ND2.3-GST: GST fusion protein containing amino acids 1-188 of human ND2 (SEQ ID NO:13) (protein, left off: a dimerising Fc or GST) MNPLAQPVIYSTIFAGTLITALSSHWFFTWVGLEMNMLAFIPVLTKKMNPRSTEAAIKYFLTQATASMILLMAILFNNMLSGQWTMTNTTNQYSSLMIMMAMAMKLGMAPFHFWVPEVTQGTPLTSGLLLLTWQKLAPISIMYQISPSLNVSLLLTLSILSIMAGSWGGLNQTQLRKILAYSSITHMG",binding to the unique domain of Src,[1],did not bind
"ND2.1-GST: GST fusion protein containing amino acids 239-321 of human ND2 (SEQ ID NO:7) (protein, left off: a dimerising Fc or GST) WLTPLIPSTLLSLGGLPPLTGFLPKWTIIEEFTKNNSLIIPTIMATITLLNLYFYLRLIYSTSITLLPMSNNVKMKWQFE",co-immunoprecipitation of Src with NMDARs,[5],suppressed
same,binding to the unique domain of Src,[1],bound
same,binding to the SH2 or SH3 domains of Src,[6],did not bind
same,interaction in vitro with the Fyn unique domain,[7],did not interact
same,pulls Src from PSD preparations,[8],pulls Src
same,catalytic activity of Src in vitro,[9],did not alter
